We go through six proteins from publication PMC7859452, “A Dimerization Site at SCR-17/18 in Factor H Clarifies a New Mechanism for Complement Regulatory Control” (Frontiers in Immunology, 2020).

One may read the Kd as a measure of binding affinity in units of concentration. A word on the stoichiometry N: it is a count of units in the complex or per binding partner.

Data set [1] concerns the molecule itself. Kind of data set: AUC; sedimentation velocity, c(s) size distribution (SEDFIT), 50,000 rpm, 20 °C, 10 mM Hepes pH 7.4, 137 mM NaCl, concentration series 0.2 – 3 mg/ml; KD of dimer to monomers from integration of the c(s) peaks.
Data set [2] concerns the molecule itself. As to the kind of experiment: AUC; sedimentation velocity, c(s) size distribution (SEDFIT), 50,000 rpm, 20 °C, 10 mM Hepes pH 7.4, 50 mM NaCl (low salt control; data not shown); KD of dimer to monomers from integration of the c(s) peaks.

B1: Complement Factor H SCR-17H fragment (domain or fragment)
chain: TDCLSLPSFENAIPMGEKKDVYKAGEQVTYTCATYYKMDGASNVTCINSRWTGRPTCRDTS
modifications: also: N-linked glycan chain, site not given here
Take B1: in data set [1], the affinity, expressed as Kd, was 5 ± 4 µM and the percent dimer is 80%. The “stoichiometry N” value in data set [2] turned out to be 2.

B2: Complement Factor H SCR-16/18H fragment (domain or fragment)
chain: GLPCKSPPEISHGVVAHMSDSYQYGEEVTYKCFEGFGIDGPAIAKCLGEKWSHPPSCIKTDCLSLPSFENAIPMGEKKDVYKAGEQVTYTCATYYKMDGASNVTCINSRWTGRPTCRDTSCVNPPTVQNAYIVSRQMSKYPSGERVRYQCRSPYEMFGDEEVMCLNGNWTEPPQCKDST
modifications: N-linked glycan chains on SCR-17 and SCR-18
B2: in data set [1], binding was characterised by a dissociation constant (Kd) of 6 ± 5 µM, the percent dimer turned out to be 60% and the “stoichiometry N” value stood at 2. In data set [2], the dissociation constant Kd was around 10 µM and the percent dimer was 50%.

B3: Complement Factor H SCR-18/20 fragment (domain or fragment)
chain: TSCVNPPTVQNAYIVSRQMSKYPSGERVRYQCRSPYEMFGDEEVMCLNGNWTEPPQCKDSTGKCGPPPPIDNGDITSFPLSVYAPASSVEYQCQNLYQLEGNKRITCRNGQWSEPPKCLHPCVISREIMENYNIALRWTAKQKLYSRTGESVEFVCKRGYRLSSRSHTLRTTCWDGKLEYPTCAKR
modifications: N-linked glycan chain on SCR-18
Turning to B3, the dissociation constant Kd was 590 ± 150 µM in data set [1] and 180 ± 130 µM in data set [2]. In addition, the “stoichiometry N” value in data set [2] was found to be 2.

B4: Complement Factor H SCR-16/20 fragment (domain or fragment)
chain: GLPCKSPPEISHGVVAHMSDSYQYGEEVTYKCFEGFGIDGPAIAKCLGEKWSHPPSCIKTDCLSLPSFENAIPMGEKKDVYKAGEQVTYTCATYYKMDGASNVTCINSRWTGRPTCRDTSCVNPPTVQNAYIVSRQMSKYPSGERVRYQCRSPYEMFGDEEVMCLNGNWTEPPQCKDSTGKCGPPPPIDNGDITSFPLSVYAPASSVEYQCQNLYQLEGNKRITCRNGQWSEPPKCLHPCVISREIMENYNIALRWTAKQKLYSRTGESVEFVCKRGYRLSSRSHTLRTTCWDGKLEYPTCAKR
modifications: N-linked glycan chains on SCR-17 and SCR-18
In the case of B4, in data set [1], the Kd came to 31 ± 14 µM and the percent dimer was determined as 40%. Moreover, in data set [2], the equilibrium dissociation constant (Kd) came to 90 ± 20 µM and the “stoichiometry N” value was 2.

B5: Complement Factor H SCR-18H fragment (domain or fragment)
chain: TSCVNPPTVQNAYIVSRQMSKYPSGERVRYQCRSPYEMFGDEEVMCLNGNWTEPPQCKDST
modifications: also: N-linked glycan chain, site not given here
In data set [1], B5 returned a Kd of 37 ± 27 µM and a percent dimer of around 50%. Further, in data set [2], the Kd is around 60 µM and the “stoichiometry N” value was 2.

B6: Complement Factor H SCR-17/18H fragment (domain or fragment)
chain: TDCLSLPSFENAIPMGEKKDVYKAGEQVTYTCATYYKMDGASNVTCINSRWTGRPTCRDTSCVNPPTVQNAYIVSRQMSKYPSGERVRYQCRSPYEMFGDEEVMCLNGNWTEPPQCKDST
modifications: N-linked glycan chains on SCR-17 and SCR-18
In the case of B6, in data set [1], the Kd was 3 ± 1 µM, the percent dimer was 80% and the “stoichiometry N” value is 2. For the same protein, the dissociation constant (Kd) in data set [2] amounted to 2 ± 1 µM.
